Assay results published in CN115819596A (YOUMAI BIOTECHNOLOGY LIANYUNGANG CO LTD, dated 2023).

Columns and labels:
[1] = target: T1, 人CEACAM5 on CHO cells (CHO-CEACAM5) (human, UniProt P06731 35-685); experiment: flow cytometry on CHO cells overexpressing human CEACAM5
T1 construct: whole, on cells; also called 过表达人CEACAM5的CHO细胞
T1 sequence (looked up): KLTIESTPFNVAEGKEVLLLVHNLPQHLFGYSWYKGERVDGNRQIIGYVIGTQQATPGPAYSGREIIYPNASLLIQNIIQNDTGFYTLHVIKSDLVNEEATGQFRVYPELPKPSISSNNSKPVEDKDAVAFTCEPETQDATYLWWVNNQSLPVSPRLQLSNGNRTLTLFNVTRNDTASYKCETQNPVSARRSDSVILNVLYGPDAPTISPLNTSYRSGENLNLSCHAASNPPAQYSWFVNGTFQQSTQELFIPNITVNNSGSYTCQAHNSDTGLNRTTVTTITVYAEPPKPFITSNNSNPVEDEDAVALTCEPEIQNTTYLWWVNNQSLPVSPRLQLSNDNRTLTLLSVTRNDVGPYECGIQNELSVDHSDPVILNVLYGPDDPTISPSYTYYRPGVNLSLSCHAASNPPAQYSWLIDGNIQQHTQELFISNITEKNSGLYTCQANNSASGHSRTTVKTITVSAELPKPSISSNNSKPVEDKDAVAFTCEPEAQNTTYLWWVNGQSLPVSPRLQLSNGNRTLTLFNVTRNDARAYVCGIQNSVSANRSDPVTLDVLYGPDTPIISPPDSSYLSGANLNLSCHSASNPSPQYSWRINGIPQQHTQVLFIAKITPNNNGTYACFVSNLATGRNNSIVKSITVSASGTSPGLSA

[2] = target: T2, 人CEACAM5蛋白 (human CEACAM5 protein) (human, UniProt P06731 35-685, limits assumed); experiment: ELISA, plate-coated human CEACAM5 protein, goat anti-human IgG HRP
T2 construct: Soluble protein used for ELISA coating and as SPR analyte; The construct is not described
T2 sequence (looked up): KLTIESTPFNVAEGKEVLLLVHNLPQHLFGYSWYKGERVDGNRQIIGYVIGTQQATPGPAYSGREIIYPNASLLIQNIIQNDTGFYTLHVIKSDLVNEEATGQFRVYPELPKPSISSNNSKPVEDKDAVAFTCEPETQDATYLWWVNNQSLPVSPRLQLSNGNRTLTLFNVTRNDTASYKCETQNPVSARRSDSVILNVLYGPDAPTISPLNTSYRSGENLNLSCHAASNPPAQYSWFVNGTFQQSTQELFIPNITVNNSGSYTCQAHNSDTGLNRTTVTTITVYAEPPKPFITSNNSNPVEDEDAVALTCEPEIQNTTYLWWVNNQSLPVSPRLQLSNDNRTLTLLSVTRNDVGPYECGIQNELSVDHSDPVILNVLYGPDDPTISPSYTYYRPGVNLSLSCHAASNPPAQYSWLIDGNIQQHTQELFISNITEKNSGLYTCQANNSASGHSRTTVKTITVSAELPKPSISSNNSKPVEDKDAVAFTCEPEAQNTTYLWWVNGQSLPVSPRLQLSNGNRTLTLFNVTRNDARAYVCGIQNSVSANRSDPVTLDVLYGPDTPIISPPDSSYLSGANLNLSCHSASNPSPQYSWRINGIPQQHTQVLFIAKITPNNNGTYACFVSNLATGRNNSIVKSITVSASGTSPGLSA

[3] = target: T3, 人CEACAM6 on CHO cells (CHO-CEACAM6) (human, UniProt P40199 35-320); experiment: flow cytometry on CHO-CEACAM6 stable cells
T3 construct: whole, on cells
T3 sequence (looked up): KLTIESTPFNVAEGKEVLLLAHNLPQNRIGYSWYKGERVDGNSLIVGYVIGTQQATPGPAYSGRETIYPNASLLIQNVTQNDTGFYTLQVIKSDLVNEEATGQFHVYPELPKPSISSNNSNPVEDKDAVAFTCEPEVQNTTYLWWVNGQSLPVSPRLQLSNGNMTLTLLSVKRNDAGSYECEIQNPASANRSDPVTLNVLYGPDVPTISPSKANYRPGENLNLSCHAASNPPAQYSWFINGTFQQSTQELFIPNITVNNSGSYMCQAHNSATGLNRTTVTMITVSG

[4] = target: 食蟹猴CEACAM5蛋白 (cynomolgus CEACAM5 protein) (cynomolgus monkey); experiment: ELISA, plate-coated cynomolgus CEACAM5 protein
[5] = target: T2, 人CEACAM5蛋白 (human CEACAM5 protein); experiment: SPR (Biacore), antibody captured on protein A chip, CEACAM5 protein as analyte
[6] = target: T2, 人CEACAM5蛋白 (human CEACAM5 protein); experiment: SPR (Biacore), antibody captured on protein A chip; the text value differs tenfold from Table 8
CD47 on A549 cells = target: T4, CD47 on A549 cells (human, UniProt Q08722 19-323); experiment: grade of blocking of SIRPα-mouse Fc binding to CD47 on A549 cells, flow cytometry (reference antibody)
T4 construct: whole, on cells; A549 cells also express CEACAM5; also called A549细胞上CD47

[7] = target: 人CD47蛋白 (human CD47 protein) (human, UniProt Q08722 19-139, limits assumed); experiment: SPR (Biacore 8K), antibody captured on protein A chip, human CD47 protein as analyte
[8] = target: T2, 人CEACAM5蛋白 (human CEACAM5 protein); experiment: SPR (Biacore 8K), antibody captured on protein A chip, human CEACAM5 protein as analyte

B1: UM05-C9 (antibody, V domains shown)
VH: QVQLVQSGAEVKKPGASVKVSCKASGYTFTDYAMHWVRQAPGQGLEWIGVISTYSGHTNYNQKFKGRAIMTRDKSISTAYMELSRLRSDDTAVYYCVRGSTTAHYYTMDFWGQGTTVTVSS
VL: DIQMTQSPSSLSASVGDRVTITCGASENIYGTLNWYQQKPGKSPKLLIYGATNLADAVPSRFSGSGSGTDYTLTISSLQPEDVATYYCQNVLSIPYTFGGGTKVEIK
notes: Humanized anti-human CEACAM5/6 antibody; Only the variable domains are tied to it by name; Detected with goat anti-human IgG; also called 人源化抗体UM05-C9; CEACAM5/6抗体UM05-C9
[1]
  EC50: 0.637 µg/mL
[2]
  EC50: 0.399 nM

B2: UM05-L9 (antibody, human IgG1, kappa, V domains shown)
VH: QVQLQQSGPELVRPGVSVKISCKGSGYTFTDYAMHWVKQSHAKSLEWIGVISTYSGHTNYNQKFKGKAIMTVDKSSSTAYMDLARLTSEDSAIYYCVRGSTTAHYYTMDFWGQGTSVTVSS
VL: DIQMTQSPVSLSASVGETVTITCGASENIYGTLNWYQRKQGKSPQLLIYGATNLADGVSSRFSGSGSGRQYSLKISSLHPDDVATYYCQNVLSIPYTFGGGTKLEIKR
notes: also called 人-鼠嵌合抗体UM05-L9; 嵌合抗体UM05-L9
[3]
  binding result: binds
[4]
  EC50: 0.678 nM
[5]
  Kd: 6.8 nM
  koff: 0.000445 s⁻¹
  kon: 65400 M⁻¹ s⁻¹
[6]
  Kd: 0.68 nM

B3: UM03-C4 (antibody, V domains shown)
VH: QVQLVESGGGVVQPGGSLRLSCAASGFTFSDYGMAWIRQAPGKGPEWIAFITNLASSIYYADTVTGRFTISRDNSKNTLYLQMNSLRAEDTAVYYCARAGDYRSFPYWGQGTLVTVSA
VL: EIVLTQSPATLSLSPGERATLSCSASSSVNYVNWYQQKPGQAPRILIYGISNLASGVPARFSGSGSGTDFTLTISSLEPEDFAVYYCQQRSTFPPYTFGQGTKLEIK
notes: IgG4 subtype of the humanized anti-human CD47 antibody; also called 人源化CD47单克隆抗体; CD47抗体的IgG4亚型
CD47 on A549 cells
  binding result: binds

B4: UM11-L34 (bispecific antibody)
chain 1: not shown
chain 2: DIQMTQSPSSLSASVGDRVTITCGASENIYGTLNWYQQKPGKSPKLLIYGATNLADAVPSRFSGSGSGTDYTLTISSLQPEDVATYYCQNVLSIPYTFGGGTKVEIKRTVAAPSVFIFPPSDEQLKSGTASVVCLLNNFYPREAKVQWKVDNALQSGNSQESVTEQDSKDSTYSLSSTLTLSKADYEKHKVYACEVTHQGLSSPVTKSFNRGEC
[7]
  Kd: 65.7 nM
  koff: 0.0451 s⁻¹
  kon: 686000 M⁻¹ s⁻¹
[8]
  Kd: 7.43 nM
  koff: 0.000173 s⁻¹
  kon: 23300 M⁻¹ s⁻¹
